Data on 17 sequences can be found in a protein production outcome set (Wang et al. 2014).
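Further: failed if final PepcDB status was selected cloned or expressed and not failed if soluble or beyond.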

The data set can be described thus: label from the status in PepcDB records.
Consider “MAQYQALYRQWRPRTFAEVVGQEHITRTLRNALRTGRLVHAYLFCGPRGTGKTSTAKILARAINCLAPREGEPCNECANCRRILAGNSLDVLEMDAASNRGIDEIRNLIEKIPLGPVEGRYKVYIIDEVHMLTQEAFNALLKTLEEPPAHAVFILATTEPRKVLPTILSRCQRFDFHPLTVQAIAGRLQEVAAANGVEIEPGALSLLSRKAAGGLRDALSLLDQILASGTRGPVTAGQVAVTLGTARLDTLLALTDALATGDGAGVLNLVDKALASGIEPRRLLEDLLDHTRNLLLLKVDPGAGSLTGLLPEEVEQVAAQARQFDHHRLLDLMERLQQGGAALRRSNQPRVILEMTLAGFLVAPGPSLEGLARRVAELEARLAALEGSAPSRTREKVATRNQGEGGRPPVAPGSRADAGGQERGNSGPLEAPGAGSPAGRARVINRSREFPQAAGRDRAGLAGPETATGLEPGSPASPGLELAVVQEHWPEVLAAARRESIQLQAFLREGEPVAIDGDTLTLAVKADFHRGMLEQPGNRQKVEKALAAVFGRPLKVVITSGKPSPPGDTGDTLTRLVNFFGADKVEIKD”, for which the protein production result was “failed”.
As for “MARGPPRALASTRSPSTHMTAISNPDSEDLHIIIAGAGRVGHRTARVLRDQGHEAYLIDKDPDIVEDARQALGATVIEGDATDPKVLAQADPERADVLAALTETGATNFAICAVVKHLTGDIRTVARIERPDQLDEEGTFFDRVVYPERAGAKSAVNQILTGDTRVFEDVGGDLDVAEVQVAPEAPAAGKQLDAAALPDQSHVVFDVTNDEVPQPSTELVPGHRYLIAAAPGVAREARRRLVG”, the protein production result is listed as “failed”.
As to “MARGREAVTLLLVGWGYAPGMQTLEALDAVRRADVVYVESYTMPGSSWLYKSVVEAAGEARVVEASRRDLEERSREIVSRALDAVVAVVTAGDPMVATTHSSLAAEALEAGVAVRYIPGVSGVQAARGATMLSFYRFGGTVTLPGPWRGVTPISVARRIYLNLCAGLHTTALLDVDERGVQLSPGQGVSLLLEADREYAREAGAPALLARLPSVLVEAGAGGGHRVLYWSSLERLSTADVEGGVYSIVIPARLSGVEEWLLAAASGQRRPLEYDRSVYETVEENCKKGVYMEPV”, the protein production result is on record as “not failed”.
The value for “MARLIGFKMAEVHRGRIVMQLDPDQSLENTAGLLHGAIAAALLDTAMGCAISTQQPAGQGSVTMDLKLSYLRPLSVRSGTIVAEGRVVKLGRQSSYTEGFVYDGAGKLAVHATATFAMLGAGPLEHHHHHH” was “failed”.
As for “MARLIIPCRSSSLARVNLLGLLSRAPVPVRSSCLRSSANRLTQHRPFLTSEAICLRKNRFLPHSVDTHKQNSRRLICSVATESVPDKAEDSKMDAPKEIFLKNYTKPDYYFETVDLSFSLGEEKTIVSSKIKVSPRVKGSSAALVLDGHDLKLLSVKVEGKLLKEGDYQLDSRHLTLPSLPAEESFVLEIDTEIYPHKNTSLEGLYKSSGNFCTQCEAEGFRKITFYQDRPDIMAKYTCRVEGDKTLYPVLLSNGNLISQGDIEGGRHYALWEDPFKKPCYLFALVAGQLVSRDDTFTTRSGRQVSLKIWTPAEDLPKTAHAMYSLKAAMKWDEDVFGLEYDLDLFNIVAVPDFNMGAMENKSLNIFNSKLVLASPETATDADYAAILGVIGHEYFHNWTGNRVTCRDWFQLSLKEGLTVFRDQEFSSDMGSRTVKRIADVSKLRIYQFPQDAGPMAHPVRPHSYIKVYEKVWLFTNSVLLYAGAEVVRMYKTLLGTQGFRKGIDLYFERHDEQAVTCEDFFAAMRDANNADFANFLQWYSQAGTPVVKVVSSYNADARTFSLKFSQEIPPTPGQPTKEPTFIPVVVGLLDSSGKDITLSSVHHDGTVQTISGSSTILRVTKKEEEFVFSDIPERPVPSLFRGFSAPVRVETDLSNDDLFFLLAHDSDEFNRWEAGQVLARKLMLNLVSDFQQNKPLALNPKFVQGLGSVLSDSSLDKEFIAKAITLPGEGEIMDMMAVADPDAVHAVRKFVRKQLASELKEELLKIVENNRSTEAYVFDHSNMARRALKNTALAYLASLEDPAYMELALNEYKMATNLTDQFAALAALSQNPGKTRDDILADFYNKWQDDYLVVNKWFLLQSTSDIPGNVENVKKLLDHPAFDLRNPNKVYSLIGGFCGSPVNFHAKDGSGYKFLGDIVVQLDKLNPQVKTPKLTCVFAVTYIM”, the protein production entry was “failed”.
For the sequence “MARLIVNALVSVPLAEIEIGFVRSGGAGGQNVNKLATAAHLRFDIAASSLPETCKTRLLDHRDRRMTAEGIIVIKAQRFGTQEKNREDALARLRGLILQALAQRRPRKPTRPTLAAKKKRLDEKTRHGEIKRLRRRIGDLEHHHHHH”, the protein production result was “failed”.
The value for “MARMAVTLTHVMAMHAQILKFIVTALFVVPLFLAPAEAQTSETDLLAQLQTAPESEANRLERELALIWDQSGSAAMDLLLKRGREALEDEDNARAVEHLSALTDHAPEFAEGWHARATALYRAGLYGPALDALHQALLLNPNNFNAIFGLGVMMREFGDLDRAARAFDRVLELHPHHKRAKAAKEQMAVQGLGQTL” was “failed”.
The value for “MARQLDEQIAGRFPVGQRLRVLDVGMGQGTQALRLARAGHQVTGVEQDATMIAVARETLAAEPEGIRSRMRLVQSDGRDTGVHFLPGSFDVVLCHGVLMYVEDPDALLAGLARMLAPGGLLSLLVRNADALAMRPGLAGDWASALTSFDTTAYTNRLGLDVRADRLDALTSTLAGIGAPLHAWYGVRVFTDTAADGAELPADVETLLAAEERAGRTDPYRQVAALLHLCGVRGGGAP” was “failed”; that for “MARQTYGTTPWGAWFLDMLKAYDDSGRLSRGKTYANTGKVNSLVVNGQTAGAKVKGNYSPWYHVYFKFPPLSKTNKTAIRSILEKHPIELAGLRAGIMSPALIEALKKKKVRLIPARWNLIERDCTCPDSGDPCKHMAAVLFLLAKEIDHDPRLLFKLAGFDIDSINVPETEVFEKGGTQKLGLLQEQPVPLSLRKNETLNKAADLSSDSSVSETAHNSCELQSPLKFSLGESYLPLITNILPPEPNFSSSDFIIKLTEFYHKAVLNYGLNFYGQEKQSEKQEEKSVNPFLFARVKVNIDNIRKQKRAFPLEPKSPLTVNIKLGETHEINQTLLQAQNFYKTRNSLNEMSPSVKILFSLFALAGKLIQSSAFIPAVFTENKKLFIFWKSLSASSEIKADIFKFAASLTKDFFLPVGKWGRLYCAELLLTALLTEYAASLKFFPNKSYTKDKEIDKLFFLNEEIDISVPGKRNLDTVIYSWLSVLNYSNCGYEYRLTLEALKDDEFFLLSALVRKAKEKRIEAGDDSFALEAEAPFAELNTAAKRSKNPDDILRFPATLAAYLPALSILAIKKNVMLSREETGLFLQKSAKLLQRFGIDIVLPKSLKNILTPKPVISVKSVKGAGNIVSFLNIDDVLSYDRALMLGDTLIDIDEFKKLFLNKSGLVKFNDQFLLLDPEEVAKMLKALEKPADTKEVLQAVLSGNAVCSKPASEIIKNIFRQEEVPVPQNLNAELRPYQKQGYRWLYANIKSGFGCLLADDMGLGKTVQIISLMLSFKNSKEAESPFLVIAPASLLSNWEHEIAKFAPSLKTAVYHGAGRKFTTEADVIISTYQTMQKDIEKLKDKKVFCIILDEAQAIKNSGTKKAHAVKAIQARGRVALTGTPVENNLEDMRSIFDFFLPGYLGTADEFRKKWRIPIELHNSETEADDLKKITSPFLLRRLKTDPKVISDLPDKIITNQYCNLTPEQLAIYENLVETELHKVMGAETKIERQAYVLKLLTALKQVCNHPRAYDKETPIEMKYSGKAAVLIELLNEIISSGEKAIIFSQYVGTLDILKNIIQKELGTEPLLLHGQMPASKRKKAVEVFQTDSAYRIFLISLKAGGTGLNLTAANRVIHFDLWYNPAVEDQATDRAFRIGQTKNVFVHRLICSGTFEEKIDEMIQKKREISGMSISAGETWISKLSNEELAGLFKS” was “failed”; that for “MASEAVNVWSRTSLILIMLSAAILVVAVGAVMNSGLVESLQVPLWEKWVILVFLFALIIGIIGPLSGVGGGVIFVGLGMAILPFNVDFIRGAGLVAALSTSLNSAPYFTKKGLANLRIVAPLVSVSTIFSVFGGVIGLWISNSFPEGSYYVKMSLGVVLLVLLLILSRSKNVEYPPPREKKDRLSEMIDLTGGWYEPTLNRIVTYEASNLPLAMLAFSGVGFLAGMFGLGAGWANVPILNLVMGLPLKAAVASSMLILAINDSASLWVYLANGAVLPIVVVPVVLGISIGSRIGSRLAAKTKPKVIKRLVIALIALSGVVNIIQGLSGIGLLNL” was “failed”.
The value for “MASEEGQVIACHTVETWNEQLQKANESKTLVVVDFTASWCGPCRFIAPFFADLAKKLPNVLFLKVDTDELKSVASDWAIQAMPTFMFLKEGKILDKVVGAKKDELQSTIAKHLA” was “failed”; that for “MASFDGQGFMMVDNSWVQTKAIDVESTTDISPYLSKILEDSVWNGNRSIVFDVYWDVKSVSTKSEWRLCSVKFSTKNFCLFLRLPNPFCDNLKDLYRFFASKFVTFVGVQIQEDLALLKENHGIVIRSSLEIGKLAAKARGTPIVEFLGTRELAHKILWYDMSRLDSIQSKWDEASSNDRLEAAAIEGWLIFNVYDQLQQ” was “failed”.
For the sequence “MASIEQVAELISSLEQATLMAQQIGTTVGQNQLLQISSLRIAHQRLSAFLASIPTAEAEKSFSSVEPMQLGEEEKGEAEPAEEERYSAIEKVEEKMRECFIRNKRLKRPLSPSSAVVETSATEERSGRDYGFDSDPHATKLRALDLIYQFHA”, the protein production result is “failed”.
Take “MASISATLYELCEAVDHPVPTRDRDVEAVFAEIEFDAIEFCPIEFVILPIGDWLDIFGDKIVLSEPFESAVDCRLRDPGAVAELCRRARLLFRLDENRARTLVTEQVCECFRISHVGHCKRAISWFVNIGCAVLGFLSGFSQRSHKKLPSISALTFRVRMSNRQTRTPTSVLLPTVSWTAACDDVAAQLGPEDELLIIHDSKDDPVVDRKPLSENVQFIPAGDPVGCSGKANAIAAGMEAANHDRLVWTDDDFHHPPDWLDRLHKDYAEYGPTTELPAFVGQDPLAVLLEPVYVLGGTLGTYMGDHAWGGAVIFDRSALDEERFLSELRQTISDDGLLGEHISVTSVQRVRRVPMGGSLRQTLERHIRFNQIFSTHDPTVAKLSFGVLVAVLIGCVFFPLLAVVLTVLTAGVSASFGVRRASLLLTVPALVAAVPLGLYAFARDTFVWGGRRYRWHSKFDVEVLNE”: the protein production result is recorded as “failed”.
As for “MASKITQPDKYSGFLNNYSDLKETTSATGKPVLRWVDPSFDQSKYDSIVWNPITYYPVPKPSTQVGQKVLDKILNYTNTEMKEAIAQRKPLVTTAGPRSLIFRGAITGVDTSKEGLQFYEVVPVALVVAGTQMATGHRTMDTRLYFEGELIDAATNKPVIKVVRQGEGKDLNNESTPMAFENIKQVIDDMATDATMFDVN”, the protein production entry was “failed”.
For “MASKSSFMATFNIVTLMLMVASSTVTARPLMKPSMGTSSPTTSLVYRLKLDEDTGYCWDSLMQLQHCSGELILFFLNGETYIGPGCCSAIRTIGRKCWPTMIGVLGFTAQEGDMLQGYCDGNDSDNNGEDHALASSTLPLSVNFKTTVVRSSASPSNP”, the protein production entry is “failed”.
The value for “MASLDEKWEAVDNFKSVVVDRERDVVRVTKELYDLHSNREQLRGVTSSCNYRLTIPFAPHHFGSGKTTFARTYLELVQRFGETSLSTFASDPLKRTFLEKLKRASLLYADLKELKPTDPKERNLEWAVYYLLIKAACLQSGLPQPDPDECFKELKLRSDALVQKIRSILNIPSDQYLLVAFDEVGVLDESLDEFHFKRTHDGRVRPYNDFFGIISQLCKEPDLFFIVVGKSKGLSIKNYVSSVSKVILHFISLSPLDASSIVEFLEKSLLKTPTQVPVCNVLCSSSFSVNELADSLLECTGGVPGLLTRAVNMLLNYIIARKFVLNHLWNEY” was “failed”.
